In article PMC9348664, “PFKFB4 interacts with ICMT and activates RAS/AKT signaling-dependent cell migration in melanoma” (Life Science Alliance, 2022):

Target: the molecule itself
Test: two-hybrid; MaMTH (mammalian membrane split-ubiquitin two-hybrid) in MaMTH-modified HEK293T cells; bait fused to Cub-GAL4, prey fused to Nub; GAL4-driven luciferase normalised to Renilla

B1: human PFKFB4 as MaMTH fusions (PFKFB4-Cub-GAL4 bait; PFKFB4-Nub prey) (enzyme, UniProt Q16877 1-469, looked up)
chain: MASPRELTQNPLKKIWMPYSNGRPALHACQRGVCMTNCPTLIVMVGLPARGKTYISKKLTRYLNWIGVPTREFNVGQYRRDVVKTYKSFEFFLPDNEEGLKIRKQCALAALRDVRRFLSEEGGHVAVFDATNTTRERRATIFNFGEQNGYKTFFVESICVDPEVIAANIVQVKLGSPDYVNRDSDEATEDFMRRIECYENSYESLDEDLDRDLSYIKIMDVGQSYVVNRVADHIQSRIVYYLMNIHVTPRSIYLCRHGESELNLKGRIGGDPGLSPRGREFAKSLAQFISDQNIKDLKVWTSQMKRTIQTAEALGVPYEQWKVLNEIDAGVCEEMTYEEIQDNYPLEFALRDQDKYRYRYPKGESYEDLVQRLEPVIMELERQENVLVICHQAVMRCLLAYFLDKAAEQLPYLKCPLHTVLKLTPVAYGCKVESIFLNVAAVNTHRDRPQNVDISRPPEEALVTVPAHQ
notes: 6-phosphofructo-2-kinase/fructose-2,6-biphosphatase 4 (PFKFB4), human, inserted in-frame into the MaMTH bait or prey vectors; One molecule for the differently tagged copies of the same protein; The bait copy carries Cub-GAL4; The prey copy carries Nub at its N- or C-terminus (both were tested against the PFKFB4 bait); also called hPFKFB4; source: MaMTH-modified HEK293T, transfected, in cells; not …
fold increase of luciferase expression over PFKFB4-Cub-GAL4 alone (Nub at the C-terminus of the prey): 13 times
fold increase of luciferase expression over PFKFB4-Cub-GAL4 alone (Nub at the N-terminus of the prey): 5 times
